The results in this text go back to patent publication US20190161539A1.

The IC50 is the concentration needed to halve the response being measured. Read a low IC50 as greater potency. The term Kd denotes the free concentration of one partner at which half of the binding sites on the other are occupied at equilibrium, for simple one-to-one binding. Read a high Kd as lower affinity.

The target in test [1] is β-amyloid peptide (1-42) conjugated to BSA. Kind of test: competition ELISA on coated Aβ1-42-BSA against biotinylated Mu266, first set of three experiments.
Test [2] has the same target. Description: competition ELISA on coated Aβ1-42-BSA against biotinylated Mu266, second set of three experiments.
For another test, the target named is Aβ 1-40 peptide (human). Kind of test: KinExA 3000, equilibrium in solution with human soluble Abeta (1-40), 37° C.

In the case of Mouse monoclonal antibody 266 (Mu266), the IC50 in test [1] amounted to 4.7 mg/L; in test [2], 3.87 mg/L. In the test with Aβ 1-40 peptide (human), m266-Fab returned a Kd of 0.24 nM.
